From publication PMC11993684, “Fibromodulin selectively accelerates myofibroblast apoptosis in cutaneous wounds by enhancing interleukin 1β signaling” (Nature Communications, 2025) come the findings set out here.

B1: recombinant human fibromodulin (FMOD) with C-terminal His-tag (natural protein, UniProt Q06828 19-376, looked up)
chain: QYEDDPHWWFHYLRSQQSTYYDPYDPYPYETYEPYPYGVDEGPAYTYGSPSPPDPRDCPQECDCPPNFPTAMYCDNRNLKYLPFVPSRMKYVYFQNNQITSIQEGVFDNATGLLWIALHGNQITSDKVGRKVFSKLRHLERLYLDHNNLTRMPGPLPRSLRELHLDHNQISRVPNNALEGLENLTALYLQHNEIQEVGSSMRGLRSLILLDLSYNHLRKVPDGLPSALEQLYMEHNNVYTVPDSYFRGAPKLLYVRLSHNSLTNNGLASNTFNSSSLLELDLSYNQLQKIPPVNTNLENLYLQGNRINEFSISSFCTVVDVVNFSKLQVLRLDGNEIKRSAMPADAPLCLRLASLIEI
notes: fibromodulin, human; cDNA of a human FMOD transcript (NM_002023) subcloned into pSecTag2A; secreted into the culture supernatant of CHO-K1 cells; Proteoglycan made in CHO cells; also called His-tagged FMOD; not shown: His-tag, C-terminal, kept

The target of test [1] is T1, IL1β-IL1R1-IL1RAP ternary complex formed in vitro from recombinant proteins (human, UniProt P01584 117-269; P14778 18-336; Q9NPH3 21-367).
T1 construct: interleukin 1 beta, human, recombinant, His-tag-free, 17 kDa on SDS-PAGE; as m2; interleukin 1 receptor type 1, recombinant, His-tag-free, 55 kDa on SDS-PAGE; as m3; interleukin 1 receptor accessory protein, recombinant, His-tag-free, 70-75 kDa on SDS-PAGE; as m4; See the notes of m3 and m4 on the bought constructs; also called IL1β-IL1R1-IL1RAP complex; IL1β-IL1R1-ILRAP ternary complex; source: …
The experiment in a line: pull-down; Pierce His Protein Interaction Pull-Down Kit; 150 μg His-tagged FMOD immobilised as bait; His-tag-free 100 μg IL1β, 100 μg IL1R1, 100 μg IL1RAP, or the complex formed beforehand (100 μg IL1β, 50 μg IL1R1, 50 μg IL1RAP, 4 °C overnight) as prey; eluate by SDS-PAGE and Western blotting. Conditions: both partners purified. (A western blot detects proteins with antibodies after separation by electrophoresis.)

Test [2] addresses B1. The experiment in a line: SPR; Biacore 3000; FMOD immobilised on CM5 chip by amine coupling; IL1R1 or IL1RAP in HBS-EP pH 7.4 (0.15 M NaCl, 10 mM HEPES, 3 mM EDTA, 0.005% polysorbate 20), 50 μL/minute; double referencing; Scrubber 2.0. The note with it: both partners purified. Background: Surface plasmon resonance follows binding to a sensor surface in real time, without labels.

Test [3] deals with T2, recombinant human fibromodulin (FMOD) with C-terminal His-tag (human, UniProt Q06828 19-376).
T2 chain: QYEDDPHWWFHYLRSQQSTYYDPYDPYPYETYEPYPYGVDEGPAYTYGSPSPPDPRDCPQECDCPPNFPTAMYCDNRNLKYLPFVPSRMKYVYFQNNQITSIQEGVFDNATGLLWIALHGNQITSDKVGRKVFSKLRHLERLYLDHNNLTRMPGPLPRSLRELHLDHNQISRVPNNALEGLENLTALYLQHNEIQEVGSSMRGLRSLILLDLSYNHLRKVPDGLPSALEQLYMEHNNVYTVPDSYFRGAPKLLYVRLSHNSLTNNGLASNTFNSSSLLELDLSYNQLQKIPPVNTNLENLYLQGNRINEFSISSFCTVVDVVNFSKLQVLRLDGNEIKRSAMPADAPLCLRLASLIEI
As to the kind of experiment: SPR.

With B1, in test [1], the binding result was “binds”.

B2: recombinant IL1R1 (R&D Systems 269-1R-100/CF) (receptor, human, UniProt P14778 18-336, looked up)
chain: LEADKCKEREEKIILVSSANEIDVRPCPLNPNEHKGTITWYKDDSKTPVSTEQASRIHQHKEKLWFVPAKVEDSGHYYCVVRNSSYCLRIKISAKFVENEPNLCYNAQAIFKQKLPVAGDGGLVCPYMEFFKNENNELPKLQWYKDCKPLLLDNIHFSGVKDRLIVMNVAEKHRGNYTCHASYTYLGKQYPITRVIEFITLEENKPTRPVIVSPANETMEVDLGSQIQLICNVTGQLSDIAYWKWNGSVIDEDDPVLGEDYYSVENPANKRRSTLITVLNISEIESRFYKHPFTCFAKNTHGIDAAYIQLIYPVTNFQK
notes: interleukin 1 receptor type 1, recombinant, His-tag-free, 55 kDa on SDS-PAGE, carrier-free; also called interleukin 1 receptor type 1; source: bought: R&D Systems (carrier-free)
As a reminder, the Kd is a measure of binding affinity in units of concentration. In general, koff refers to the first-order rate constant of dissociation. With B2, the Kd in test [2] came to 430 nM. Besides, in test [3], the koff was found to be 0.02 s⁻¹.
